US20150374794A1 (Novo Nordisk, published 2015)
Numbered stars: 1 amine (or outer) side, 2 acyl side, 3 side chain; on linkers, the order of the positions; unused ones are H or OH. Square brackets hold non-standard residues; d marks the D form. Side chains are listed from the residue outwards. Ends that are not written are not given here. * marks the point of attachment. C18 diacid = O=C(O)CCCCCCCCCCCCCCCCC(=O)*; γGlu = O=C(O)[C@H](CCC(=O)[*:2])N[*:1]; AEEA = NCCOCCOCC(=O)O; Aib = CC(C)(N)C(=O)O

B1: N^ε28-[2-[2-[2-[[2-[2-[2-[[(4S)-4-carboxy-4-[[(4S)-4-carboxy-4-[[(4S)-4-carboxy-4-(17-carboxyheptadecanoylamino)butanoyl]amino]butanoyl]amino]butanoyl]amino]eth … (peptide)
peptide: H[Aib]QGTFTSDVSKYLDARRAQDFVQWLLK([AEEA-AEEA-γGlu-γGlu-γGlu-C18 diacid])T-NH2
modifications: N-terminus assumed
SMILES: CC(C)C[C@H](NC(=O)[C@H](Cc1ccc(O)cc1)NC(=O)[C@H](CCCCN)NC(=O)[C@H](CO)NC(=O)[C@@H](NC(=O)[C@H](CC(=O)O)NC(=O)[C@H](CO)NC(=O)[C@@H](NC(=O)[C@H](Cc1ccccc1)NC(=O)[C@@H](NC(=O)CNC(=O)[C@H](CCC(N)=O)NC(=O)C(C)(C)NC(=O)[C@@H](N)Cc1c[nH]cn1)[C@@H](C)O)[C@@H](C)O)C(C)C)C(=O)N[C@@H](CC(=O)O)C(=O)N[C@@H](C)C(=O)N[C@@H](CCCNC(=N)N)C(=O)N[C@@H](CCCNC(=N)N)C(=O)N[C@@H](C)C(=O)N[C@@H](CCC(N)=O)C(=O)N[C@@H](CC(=O)O)C(=O)N[C@@H](Cc1ccccc1)C(=O)N[C@H](C(=O)N[C@@H](CCC(N)=O)C(=O)N[C@@H](Cc1c[nH]c2ccccc12)C(=O)N[C@@H](CC(C)C)C(=O)N[C@@H](CC(C)C)C(=O)N[C@@H](CCCCNC(=O)COCCOCCNC(=O)COCCOCCNC(=O)CC[C@H](NC(=O)CC[C@H](NC(=O)CC[C@H](NC(=O)CCCCCCCCCCCCCCCCC(=O)O)C(=O)O)C(=O)O)C(=O)O)C(=O)N[C@H](C(N)=O)[C@@H](C)O)C(C)C
B2: N^ε28-[2-[2-[2-[[2-[2-[2-[[(4S)-4-carboxy-4-[[(4S)-4-carboxy-4-[[(4S)-4-carboxy-4-(17-carboxyheptadecanoylamino)butanoyl]amino]butanoyl]amino]butanoyl]amino]eth … (peptide)
peptide: H[Aib]QGTFTSDVSKYLDLRRAQDFVQWLLK([AEEA-AEEA-γGlu-γGlu-γGlu-C18 diacid])T-NH2
modifications: N-terminus assumed
SMILES: CC(C)C[C@H](NC(=O)[C@H](CC(=O)O)NC(=O)[C@H](CC(C)C)NC(=O)[C@H](Cc1ccc(O)cc1)NC(=O)[C@H](CCCCN)NC(=O)[C@H](CO)NC(=O)[C@@H](NC(=O)[C@H](CC(=O)O)NC(=O)[C@H](CO)NC(=O)[C@@H](NC(=O)[C@H](Cc1ccccc1)NC(=O)[C@@H](NC(=O)CNC(=O)[C@H](CCC(N)=O)NC(=O)C(C)(C)NC(=O)[C@@H](N)Cc1c[nH]cn1)[C@@H](C)O)[C@@H](C)O)C(C)C)C(=O)N[C@@H](CCCNC(=N)N)C(=O)N[C@@H](CCCNC(=N)N)C(=O)N[C@@H](C)C(=O)N[C@@H](CCC(N)=O)C(=O)N[C@@H](CC(=O)O)C(=O)N[C@@H](Cc1ccccc1)C(=O)N[C@H](C(=O)N[C@@H](CCC(N)=O)C(=O)N[C@@H](Cc1c[nH]c2ccccc12)C(=O)N[C@@H](CC(C)C)C(=O)N[C@@H](CC(C)C)C(=O)N[C@@H](CCCCNC(=O)COCCOCCNC(=O)COCCOCCNC(=O)CC[C@H](NC(=O)CC[C@H](NC(=O)CC[C@H](NC(=O)CCCCCCCCCCCCCCCCC(=O)O)C(=O)O)C(=O)O)C(=O)O)C(=O)N[C@H](C(N)=O)[C@@H](C)O)C(C)C

Key:
[1] = biological target: T1, human GLP-1 receptor (human, UniProt P43220 24-463); assay: displacement of 125I-GLP-1(7-36)NH2, membranes with human GLP-1R, SPA
T1 construct: whole, on cells; the potency assay used whole cells (clone FCW467-12A/KZ10-1)
Description: (§1) The receptor binding of each compound to the human GLP-1 receptor was measured in a displacement binding assay. […] Each derivative was added in a series of concentrations to isolated membranes containing the human GLP-1 receptor and displacement of the labelled ligand was monitored. The receptor binding was reported as the concentration at which half of the labelled ligand was displaced from the receptor, the IC₅₀ value.

[2] = biological target: T2, human glucagon receptor (human, UniProt P47871 26-477); assay: displacement of 125I-glucagon, membranes with human glucagon receptor, SPA
T2 construct: whole, on cells; the potency assay used whole cells (clone pLJ6'-4-25); also called GlucR; hGCGR
T2 sequence (P47871 26-477): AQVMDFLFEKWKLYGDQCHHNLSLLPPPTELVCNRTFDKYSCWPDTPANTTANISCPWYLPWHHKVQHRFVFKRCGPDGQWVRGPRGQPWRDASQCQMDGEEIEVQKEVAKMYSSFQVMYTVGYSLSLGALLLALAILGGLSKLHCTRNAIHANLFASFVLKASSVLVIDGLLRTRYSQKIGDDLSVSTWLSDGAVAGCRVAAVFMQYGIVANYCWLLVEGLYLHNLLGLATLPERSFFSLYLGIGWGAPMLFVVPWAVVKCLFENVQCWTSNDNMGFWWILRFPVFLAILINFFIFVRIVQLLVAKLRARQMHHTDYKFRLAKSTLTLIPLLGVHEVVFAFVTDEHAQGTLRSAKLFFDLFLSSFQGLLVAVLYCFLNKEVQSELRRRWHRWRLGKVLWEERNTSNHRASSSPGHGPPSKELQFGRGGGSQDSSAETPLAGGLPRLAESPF
Description: as §1, with “human glucagon” for “human GLP-1”, “ligand is” for “ligand was”

[3] = biological target: T2, human glucagon receptor; assay: cell-based or functional assay
[4] = biological target: T1, human GLP-1 receptor; assay: cell-based or functional assay

Binder	IC50 [1] [nM]	IC50 [2] [nM]	EC50 GlucR, CRE luciferase reporter gene assay in BHK cells [3] [nM]	EC50 GLP-1R, CRE luciferase reporter gene assay in BHK cells [4] [nM]
B1	0.2	3.2	0.03	0.0015
B2	0.7	5.7	0.017	0.004
